Test results taken from EP4011904A1 (Bayer Aktiengesellschaft, dated 2022).
Positions of bridges follow the written chain, without caps; N, C: chain ends.

Tests used:
Test in all cases: cell-based or functional assay
[1] = molecular target: T1, recombinant rat MASP1 (amino acids 302-704, C-terminal His Tag) (rat, UniProt Q8CHN8 302-704)
T1 sequence: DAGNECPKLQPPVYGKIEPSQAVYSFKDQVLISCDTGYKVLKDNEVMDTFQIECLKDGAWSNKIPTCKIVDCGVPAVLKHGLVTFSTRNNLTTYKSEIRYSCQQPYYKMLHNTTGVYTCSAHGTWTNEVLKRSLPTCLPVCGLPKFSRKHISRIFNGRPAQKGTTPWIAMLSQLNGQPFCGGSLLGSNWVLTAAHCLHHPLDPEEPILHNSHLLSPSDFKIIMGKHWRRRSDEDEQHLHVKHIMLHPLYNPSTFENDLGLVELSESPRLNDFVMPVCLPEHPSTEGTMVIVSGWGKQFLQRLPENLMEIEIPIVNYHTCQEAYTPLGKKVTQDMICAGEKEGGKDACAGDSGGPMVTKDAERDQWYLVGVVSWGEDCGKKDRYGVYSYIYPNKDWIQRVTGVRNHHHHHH

[2] = molecular target: recombinant rat MASP2 (amino acids 296-685, C-terminal His Tag) (rat, UniProt Q9JJS8 296-685)
[3] = molecular target: T2, recombinant human MASP1 (amino acids 297-699, C-terminal His Tag) (human, UniProt P48740 297-699)
T2 sequence: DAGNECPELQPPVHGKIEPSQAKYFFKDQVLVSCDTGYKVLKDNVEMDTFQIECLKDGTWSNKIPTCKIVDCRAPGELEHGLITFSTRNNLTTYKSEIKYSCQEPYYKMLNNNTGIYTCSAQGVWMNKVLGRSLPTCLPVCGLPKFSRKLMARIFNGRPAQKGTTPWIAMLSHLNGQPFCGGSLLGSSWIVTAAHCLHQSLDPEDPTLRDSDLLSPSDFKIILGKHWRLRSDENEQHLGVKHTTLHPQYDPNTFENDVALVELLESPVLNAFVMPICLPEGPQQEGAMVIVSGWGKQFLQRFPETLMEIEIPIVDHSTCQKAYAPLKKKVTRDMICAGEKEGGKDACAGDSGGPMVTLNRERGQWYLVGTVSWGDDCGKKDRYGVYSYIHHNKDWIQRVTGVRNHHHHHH

[4] = molecular target: recombinant human MASP2 (amino acids 297-686, C-terminal His Tag) (human, UniProt O00187 297-686)
Chain of recombinant human MASP2 (amino acids 297-686, C-terminal His Tag) (O00187 other isoform, or with tags, fused parts or gaps limits assumed, form in doubt): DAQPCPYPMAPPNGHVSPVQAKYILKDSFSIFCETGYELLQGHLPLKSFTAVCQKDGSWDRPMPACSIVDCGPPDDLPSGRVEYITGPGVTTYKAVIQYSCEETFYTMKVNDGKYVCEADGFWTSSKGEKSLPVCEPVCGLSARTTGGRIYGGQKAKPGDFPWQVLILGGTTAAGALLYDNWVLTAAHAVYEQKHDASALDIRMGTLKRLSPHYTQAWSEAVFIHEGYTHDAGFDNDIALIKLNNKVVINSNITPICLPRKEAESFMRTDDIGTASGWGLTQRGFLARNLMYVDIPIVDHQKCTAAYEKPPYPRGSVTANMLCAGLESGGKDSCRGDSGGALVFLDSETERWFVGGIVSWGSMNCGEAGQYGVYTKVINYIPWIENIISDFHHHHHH

Chain of recombinant rat MASP2 (amino acids 296-685, C-terminal His Tag) (Q9JJS8 other isoform, or with tags, fused parts or gaps limits assumed, form in doubt): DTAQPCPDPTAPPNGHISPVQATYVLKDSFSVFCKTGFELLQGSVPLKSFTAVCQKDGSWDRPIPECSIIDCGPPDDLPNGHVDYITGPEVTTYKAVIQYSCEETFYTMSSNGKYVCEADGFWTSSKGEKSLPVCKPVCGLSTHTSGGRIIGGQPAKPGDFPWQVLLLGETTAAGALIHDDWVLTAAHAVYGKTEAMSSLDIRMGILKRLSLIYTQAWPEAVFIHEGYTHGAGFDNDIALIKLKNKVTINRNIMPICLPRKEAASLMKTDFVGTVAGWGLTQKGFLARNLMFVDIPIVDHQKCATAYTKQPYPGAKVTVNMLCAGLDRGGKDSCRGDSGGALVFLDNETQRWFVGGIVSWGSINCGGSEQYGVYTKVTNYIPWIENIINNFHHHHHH

Binder: cyclo(GRCTKSIPPICFPD) (disulfide 3-11; also: TFA salt) [Bicyclic SFTI-1: G**RC+TKSIPPIC+FPD**]
- rat MASP1 IC50 [1]: 1000 nM
- rat MASP2 IC50 [2]: 1000 nM
- human MASP1 IC50 [3]: > 3000 nM
- human MASP2 IC50 [4]: > 3000 nM
